In paper PMC10093686, “Structural insights into acetylated histone ligand recognition by the BDP1 bromodomain of Plasmodium falciparum” (International journal of biological macromolecules, 2022):
No end group written: not given here.

Molecular target: PfBDP1-BRD (residues 303–488 or 333–456), bromodomain of P. falciparum Bromodomain Protein 1, as used in ITC (P. falciparum) (UniProt Q8IJ72)
Assay: ITC; histone peptide (2.5–5.0 mM) in the syringe, PfBDP1-BRD (303–488 or 333–456; 100–200 μM) in the sample cell; 5°C; 20 mM sodium phosphate pH 7.5, 150 mM NaCl, 1 mM TCEP; 1:1 binding model, single set of identical sites

B1: H2B.ZK3acK8acK13acK14acK18ac histone peptide, penta-acetylated histone H2B.Z (peptide)
peptide: SGK(Ac)GPAQK(Ac)SQAAK(Ac)K(Ac)TAGK(Ac)TLGPR
- Kd: 1300 µM
- stoichiometry N: 1
